Data set [1] relates to zmPPL_1360-r23a1 ZFN monomer (synthetic construct). In words: cell_activity. Particulars: ZFN pair with zmPPL_1360-30a1 in bombarded haploid maize callus; control 5.0; locus target SEQ 32.
Data set [2] deals with zmPPL_1360-30a1 ZFN monomer (synthetic construct). In words: cell_activity. Particulars: ZFN pair with zmPPL_1360-r23a1 in bombarded haploid maize callus; control 5.0; locus target SEQ 32.

In data set [1], “ACTCCGTATGCGAAGGCA (double strand) [zmPPL_1360-r23a1 half-site (PPL1 locus)]” yielded an activity (indels per 1 million high quality reads) of 40.

“TTCGCGGTGGGACACTTG (double strand) [zmPPL_1360-30a1 half-site (PPL1 locus)]”: in data set [2], the activity (indels per 1 million high quality reads) worked out at 40.

Source of the values: patent US20150307889.
